Reference: patent US8258279B2, “Isolated nucleic acids encoding soluble corticotropin releasing factor receptor type 2 (sCRFR2) polypeptides” (Research Development Foundation, priority 2005, dated 2012)
Entries after “also recorded” stand apart in the source; their conditions may differ.

Legend:
anti-sCRFR2α serum = assay: Immunohistochemistry, specificity by preincubation of antiserum with synthetic immunogen; conditions: mouse brain sections; antiserum preincubated with immunogen
Protocol: Immunohistochemistry. Adult male C57B6J mice (Jackson Laboratories) and Sprague-Dawley albino rats (Harlan Sprague-Dawley) were anesthetized with chloral hydrate (350 mg/kg, ip) and perfused with Zamboni's fixative (Bittencourt et al., 1999), followed by 0-4 hr. post-fixation. Regularly spaced (1-in-4) series of 30 μm thick frontal sections throughout the brain were prepared for nickel-enhanced avidin-biotin-immunoperoxidase localization of sCRFR2α-ir using Vectastain Elite reagents (Vector Laboratories, Burlingame, Calif.). Primary sCRFR2α antisera were adsorbed against the carrier, affinity purified and used at a dilution of 1:2000. Specificity of immunostaining was evaluated using primary antisera preincubated overnight at 4° C. with 0-300 μM synthetic immunogen. Labeling was also evaluated in mutant mice deficient in either or both CRFRs (Smith et al., 1998; Bale et al. 2000). Detailed description of the fluorescence immunocytochemical analysis of COSM6 cells transfected with sCRFR2α can be found in the supporting text.
Further support for the specificity of labeling are observations that all immunolocalizations persisted in CRFR1- and/or CRFR2-deleted mice; note that the targeting construct used for generating each of the existing receptor-knockout lines would be expected to spare the sCRFR2α coding region (Smith et al., 1998; Timpl et al., 1998; Bale et al., 2000).

[1] = system: cAMP response to Ucn 1 and CRF in HEK293T cells transfected with mouse CRFR2α; assay: CRE-luciferase reporter (EVX1) assay of the cAMP response; type: cell-based; conditions: 4 h, 0.0001-100 nM Ucn 1 or CRF, 0.1 nM sCRFR2α
Protocol: (§1) Luciferase reporter containing a fragment of the CRE promoter of the EVX1 gene was cotransfected into 293T cells with CRFR2α expression vectors. Luciferase activity was measured following treatment (4 h) with 0.0001-100 nM Ucn 1 or CRF, in the presence or absence of 0.1 nM sCRFR2α. Assays were normalized to cotransfected β-galactosidase activity. The representative means of six replicates from one experiment is shown in the graph. FIG. 5B, Equilibrated CATH.a cells were treated with Ucn 1 (10 nM) with or without sCRFR2α (0.4 or 4 nM). After 5 min of receptor stimulation, cell lysates were harvested and subjected to SDS-PAGE immunoblot analysis using phospho-ERK1/2-p42, 44 antibody and ERK2-p44 antibody. The ERK activation was calculated by normalizing the levels of phosphorylated ERK1/2-p42, 44 to total ERK2-p44. The representative of means of triplicates from one experiment is shown in the graph. *, P<0.05 vs. vehicle treatment, #, P<0.05 vs. Ucn 1 treatment, UD=undetected.
Transient transfections and luciferase assay. […]
(§2) To delineate the possible functions of sCRFR2α, the inventors studied its effects on signaling by CRF family ligands. […] Because the urocortins activate MAPK signaling (Brar et al., 2002), the inventors measured the ability of sCRFR2α to inhibit the activation by Ucn 1 of ERK1/2-p42, 44 in CATH.a cells, which endogenously express CRFR1 and CRFR2α.

[2] = system: activation by Ucn 1 of ERK1/2-p42, 44 in CATH.a cells; assay: Extracellular receptor kinase 1/2 (ERK1/2) assay; type: cell-based; conditions: Ucn 1 10 nM, sCRFR2α 0.4 or 4 nM, 5 min
Protocol: as §1, with “The representative of means of triplicates from one experiment is shown in the graph. *, P<0.05 vs. vehicle treatment, #, P<0.05 vs. Ucn 1 treatment, UD=undetected.” left out
Extracellular receptor kinase 1/2 (ERK1/2) assay. […] Cells were harvested immediately and analyzed for phosphorylated ERK1/2-p42, 44, as previously described (Chen et al., 2005).
as §2

Astressin = molecular target: T1, Astressin (Mus musculus, UniProt Q60748); assay: Radioreceptor assay, competitive displacement of [125I-DTyr0]-astressin bound to sCRFR2α; type: binding; conditions: range in parentheses in the next cell
T1 construct: A cDNA corresponding to amino acids 20-143 was generated by PCR; made in house; host or cells: E. coli
Protocol: (§3) Radioreceptor assays. The soluble protein, purified either from COS M6 cell media or E. coli was incubated in triplicate wells with [^125I-DTyr^O]-astressin and increasing concentration of unlabeled peptides as described (Perrin et al., 2003).
(§4) The interactions of the sCRFR2α with CRF family ligands were assessed by radioreceptor assay using competitive displacement of [^125I-D Tyr^o]-astressin bound to sCRFR2α.

CRF = molecular target: T2, CRF (Mus musculus, UniProt Q60748); assay: as above; type: binding; conditions: range in parentheses in the next cell
T2 construct: A cDNA corresponding to amino acids 20-143 was generated by PCR; made in house; host or cells: E. coli
Protocol: as §3, §4

rUcn1 = molecular target: T3, rUcn1 (Mus musculus, UniProt Q60748); assay: as above; type: binding; conditions: range in parentheses in the next cell
T3 construct: A cDNA corresponding to amino acids 20-143 was generated by PCR; made in house; host or cells: E. coli
Protocol: as §3, §4

mUcn2 = molecular target: T4, mUcn2 (Mus musculus, UniProt Q60748); assay: as above; type: binding; conditions: range in parentheses
T4 construct: A cDNA corresponding to amino acids 20-143 was generated by PCR; made in house; host or cells: E. coli
Protocol: as §3, §4

mUcn3 = molecular target: T5, mUcn3 (Mus musculus, UniProt Q60748); assay: as above; type: binding
T5 construct: A cDNA corresponding to amino acids 20-143 was generated by PCR; made in house; host or cells: E. coli
Protocol: as §3, §4

[3] = system: rabbit anti-sCRFR2α (aa 113-143); assay: sCRFR2α radioimmunoassay (RIA); type: binding; conditions: anti-sCRFR2α at 1/300,000; synthetic sCRFR2α (113-143) as standard
Excerpt: FIGS. 3A-3C. A highly specific antiserum raised in rabbit using a synthetic peptide fragment encoding the unique C-terminal tail of mouse sCRFR2α protein (aa 113-143) was used to develop a sCRFR2α radioimmunoassay, used for immunoblot analysis and for immunocytochemistry. FIG. 3A is a western immunoblot of mouse sCRFR2α isolated from the medium of COS-M6 cells transiently transfected with sCRFR2αFLAG construct reacted with anti-sCRFR2α-(113-143) serum (left panel) or monoclonal M2 anti-FLAG (right panel). Lanes 1, 2, and 3 correspond to 0.1, 1.0, and 10 μl of sCRFR2α-FLAG extract, respectively. FIG. 3B, Displacement of [^125I]Tyr^113 sCRFR2α (aa 113-143) binding to rabbit anti-sCRFR2α (aa113-143) by synthetic sCRFR2α (aa 113-143) and by purified COS-M6 expressed sCRFR2α (aa 113-143)-FLAG. FIG. 3C, Immunofluorescence staining of COS-M6 cells transiently transfected with mouse sCRFR2α construct visualized with the anti-sCRFR2α (aa 113-143) serum followed by a Cy3-conjugated secondary antibody (FIG. 3C(b)). The slides were counterstained with DAPI to visualize both transfected and non transfected cells (FIG. 3C(a)).
Radio-Immuno Assays (RIA). […]

Inhibitory binding constants, Ki, Astressin (Astressin)	Inhibitory binding constants, Ki, CRF (CRF)	Inhibitory binding constants, Ki, rUcn1 (rUcn1)	Inhibitory binding constants, Ki, mUcn2 (mUcn2)	Inhibitory binding constants, Ki, mUcn3 (mUcn3)	EC50 in sCRFR2α RIA [3] [pg per tube]	Molecule	concentration blocking immunolabeling throughout the brain on pre-incubation of the antiserum (anti-sCRFR2α serum) [µM]	inhibition of the cAMP response to Ucn 1 and CRF (CRE luciferase activity) [1]	inhibition of induction of phosphorylated ERK by Ucn 1 [2]
						sCRFR2α (113-143): synthetic peptide fragment encoding the unique C-terminal tail (aa 113-143) of mouse sCRFR2α, used as immunogen and RIA standard (YRIALIVNYLGHCVSVVALVAAFLLFLVLRS; soluble splice isoform sCRFR2alpha; UniProt Q60748 113-143, looked up, fragment)	≥ 30		
nanomolar affinities	nanomolar affinities	nanomolar affinities	much lower	much lower	~5	sCRFR2α: 143 amino acid soluble splice variant of mouse CRF receptor type 2α lacking exon six (protein) MDAALLLSLLEAQLQPGAGRRAAPGRLGSAPGPRRSLHLLQHDLGPDRDLLATERTRSPSRETVPRVLQWHQVQHDPECLQRVPGERDLGLKGQLLTLRTHFG		inhibit, in a dose dependent manner; also recorded: interferes with the induction of cAMP	inhibits the induction of phosphorylated ERK; also recorded: interferes with the induction
